To fix the notation:
B1: mouseVCAM-1/humanFc fusion protein (R&D Systems) (Fc fusion, UniProt P29533 25-698, looked up)
chain: FKIEISPEYKTIAQIGDSMALTCSTTGCESPLFSWRTQIDSPLNAKVRTEGSKSVLTMEPVSFENEHSYLCTATCGSGKLERSIHVDIYSFPKDPEIQFSGPLEVGKPVTVKCLAPDIYPVYRLEIDLFKGDQLMNRQEFSSEEMTKSLETKSLEVTFTPVIEDIGKALVCRAKLHIDQIDSTLKERETVKELQVYISPRNTTISVHPSTRLQEGGAVTMTCSSEGLPAPEIFWGRKLDNEVLQLLSGNATLTLIAMRMEDSGVYVCEGVNLIGRDKAEVELVVQEKPFIVDISPGSQVAAQVGDSVVLTCAAIGCDSPSFSWRTQTDSPLNGVVRNEGAKSTLVLSSVGFEDEHSYLCAVTCLQRTLEKRTQVEVYSFPEDPVIKMSGPLVHGRPVTVNCTVPNVYPFDHLEIELLKGETTLMKKYFLEEMGIKSLETKILETTFIPTIEDTGKSLVCLARLHSGEMESEPKQRQSVQPLYVNVAPKETTIWVSPSPILEEGSPVNLTCSSDGIPAPKILWSRQLNNGELQPLSENTTLTFMSTKRDDSGIYVCEGINEAGISRKSVELIIQVSPKDIQLTVFPSKSVKEGDTVIISCTCGNVPETWIILKKKAKTGDMVLKSVDGSYTIRQAQLQDAGIYECESKTEVGSQLRSLTLDVKGKEHNKDYFSPE
notes: Bought reagent; Detected with donkey anti-human-FC-PE; also called VCAM-1/Fc; VCAM-1/FC; not shown: human Fc
B2: murine integrin α4Y991A β1 of CD11b+ myeloid cells from α4Y991A knockin mice (receptor, mouse)
chain 1: YNLDPENALLYQGPSGTLFGYSVVLHSHGSKRWLIVGAPTASWLSNASVVNPGAIYRCGIRKNPNQTCEQLQSGSPSGEPCGKTCLEERDNQWLGVTLSRQPGENGSIVTCGHRWKNIFYMKSDNKLPTGICYVMPSDLRTELSKRMAPCYKDYTRKFGENFASCQAGISSFYTQDLIVMGAPGSSYWTGTVFVYNITTNQYKAFVDRQNQVKFGSYLGYSVGAGHFRSPHTTEVVGGAPQHEQIGKAYIFSIDENELNIVYEMKGKKLGSYFGASVCAVDLNADGFSDLLVGAPMQSTIREEGRVFVYINSGMGAVMVEMERVLVGSDKYAARFGESIANLGDIDNDGFEDIAIGAPQEDDLRGAVYIYNGRVDGISSTYSQRIEGQQISKSLRMFGQSISGQIDADNNGYVDVAVGAFQSDSAVLLRTRPVVIVEASLSHPESVNRTKFDCTENGLPSVCMHLTLCFSYKGKEVPGYIVLFYNVSLDVHRKAESPSRFYFFSNGTSDVITGSIRVSSSGEKCRTHQAFMRKDVRDILTPIHVEATYHLGHHVITKRNTEEFPPLQPILQQKKEKDVIRKMINFARFCAYENCSADLQVSAKVGFLKPYENKTYLAVGSMKTIMLNVSLFNAGDDAYETTLNVQLPTGLYFIKILDLEEKQINCEVTESSGIVKLACSLGYIYVDRLSRIDISFLLDVSSLSRAHEDLSISVHASCENEGELDQVRDNRVTLTIPLRYEVMLTVHGLVNPTSFVYGSSEENEPETCMAEKLNLTFHVINTGISMAPNVSVKIMVPNSFLPQDDKLFNVLDVQTTTGQCHFKHYGRECTFAQQKGIAGTLTDIVKFLSKTDKRLLYCMKADQHCLDFLCNFGKMESGKEASVHIQLEGRPSILEMDETSSLKFEIKATAFPEPHPKVIELNKDENVAHVFLEGLHHQRPKRHFTIIIITISLLLGLIVLLLISCVMWKAGFFKRQYKSILQEENRRDSWSAVNSKSNDD
chain 2: QTDKNRCLKANAKSCGECIQAGPNCGWCTNTTFLQEGMPTSARCDDLEALKKKGCQPSDIENPRGSQTIKKNKNVTNRSKGMAEKLRPEDITQIQPQQLLLKLRSGEPQKFTLKFKRAEDYPIDLYYLMDLSYSMKDDLENVKSLGTDLMNEMRRITSDFRIGFGSFVEKTVMPYISTTPAKLRNPCTSEQNCTSPFSYKNVLSLTDRGEFFNELVGQQRISGNLDSPEGGFDAIMQVAVCGSLIGWRNVTRLLVFSTDAGFHFAGDGKLGGIVLPNDGQCHLENNVYTMSHYYDYPSIAHLVQKLSENNIQTIFAVTEEFQPVYKELKNLIPKSAVGTLSGNSSNVIQLIIDAYNSLSSEVILENSKLPDGVTINYKSYCKNGVNGTGENGRKCSNISIGDEVQFEISITANKCPNKESETIKIKPLGFTEEVEVVLQFICKCNCQSHGIPASPKCHEGNGTFECGACRCNEGRVGRHCECSTDEVNSEDMDAYCRKENSSEICSNNGECVCGQCVCRKRDNTNEIYSGKFCECDNFNCDRSNGLICGGNGVCRCRVCECYPNYTGSACDCSLDTGPCLASNGQICNGRGICECGACKCTDPKFQGPTCETCQTCLGVCAEHKECVQCRAFNKGEKKDTCAQECSHFNLTKVESREKLPQPVQVDPVTHCKEKDIDDCWFYFTYSVNGNNEAIVHVVETPDCPTGPDIIPIVAGVVAGIVLIGLALLLIWKLLMIIHDRREFAKFEKEKMNAKWDTGENPIYKSAVTTVVNPKYEGK
notes: whole, on cells; It may be mature-chain numbering and may not match the precursor entry; also called α4YA; YA

The subject of assay [1] is CD11b+ cells adhesion to endothelium. Kind of assay: Adhesion of CD11b+ cells to endothelium (Example 1 adhesion assay). Conditions: SDF-1α, TCM or IL-1β (and other chemoattractant) induced. Format: cell-based, murine. As to the method: TCM was prepared from serum-free media cultured on LLC cells for 18 h and filtered through 0.22 μm filters. 10^5 calcein-AM labelled human or murine CD11b+ cells in TCM or DMEM containing 200 ng/ml SDF-1α, IL-1β, IL-6, IL-8 or VEGF-A (R&D Systems) were incubated on HUVEC monolayers or on plastic plates coated with 5 μg/ml recombinant soluble VCAM-1 (R&D Systems). Adherent cells were quantified using a fluorescence activated plate reader (GeniosPro, TECAN). In some assays, cells were also incubated in 25 μg/ml anti-integrin α4β1 (PS2 for murine cells and HP2/1 for human cells, gifts from Biogen-Idec) and isotype control antibodies (IgG2bk for murine cells and IgG1 for human cells). In some studies, cells were incubated in 10 μM pan PI3K inhibitors […] or TG020, in PI3kinase α inhibitor PI3K75, PI3kinase γ/δ inhibitor TG115 and an inert control.

The subject of the next assay is integrin α4. Nature of the assay: Integrin α4 clustering in CD11b+ cells. Format: cell-based. To be noted: SDF-1α or IL-1β induced. The method, then: Activation of human CD29 (integrin β1 chain) in cytokine stimulated human CD11b+ cells was quantified by flow cytometry using HUTS-21 antibodies (BD Bioscience). Total β1 integrin levels were assessed using P4C10 antibodies (Chemicon). 2.5×10^6 freshly isolated human myeloid cells/ml in culture medium containing 5% FBS and 0.5% NaN3 were incubated in 10 μg/ml normal human immunoglobulin (12000C, Caltag) for 45 min on ice, then in 2 μg/ml SDF-1α, IL-1β, IL-6 or 1 mM Mn2+ plus 2.5 μg HUTS21, P4C10, or IgG2 control for 10 min at 37° C. followed by Alexa 488 goat-anti mouse antibodies for 20 min on ice. Expression levels of murine integrin α4 on bone marrow derived cells were determined by flow cytometry for PE-conjugated R1/2 (rat anti-CD49d antibody, eBioscience). To induce integrin α4 activation on human myeloid cells or murine WT and α4Y991A myeloid, purified CD11b+ cells were incubated with polystyrene microspheres (9.0 μm diameter, Bangs Laboratories) coated with TCM, 2 μg/ml SDF-1α or IL-1β overnight at 4° C. cells as previously described by Grabovsky et al., 2000. […] Samples were analyzed by Nikon CS1 spectral confocal on a Nikon TE2000E inverted microscopy. Images were captured using EZ-C13.00 imaging software and analyzed using Metamorph software.

The target in assay [2] is B2. Kind of assay: flow cytometry of VCAM-1/Fc on CD11b+ cells (FIG. 27e). The method, then: (§1) 5×10⁵ CD11b+ cells isolated from WT, α4Y991A, or PI3-kinase γ−/− mice (naïve or tumour-bearing) were incubated with 200 ng/ml IL-1β, SDF-1α, IL-6, TNFα, VEGF-A or medium together with 1 mg/ml mouseVCAM-1/humanFc fusion protein (R&D Systems) for 3 min. Cells were washed twice and incubated with donkey anti-human-FC-PE antibody (Jackson Immunoresearch) then analysed by FACs Calibur. Mean fluorescence intensity of treated cells was compared to that of unstimulated cells (basal). In other studies, cells from WT mice were untreated or were treated with 1 μM PI3-kinase α, β, or γ inhibitors for 30 min at 37° C. In some experiments GFP/RapV12 or GFP/RasV12 transfected CD11b+ cells were used. In this case, increased mean fluorescence intensity was measured for only GFP-positive cells.
In general terms: A flow cytometer gives signals particle by particle.

Assay [3] addresses T1, murine integrin α4β1 (wildtype) of CD11b+ myeloid cells (mouse, UniProt Q00651 41-1039; P09055 21-798).
T1 construct: whole, on cells; In the co-immunoprecipitations it was precipitated from CHAPS lysates of bone marrow cells with PS/2; also called VLA-4; VLA4
Kind of assay: flow cytometry, VCAM-1/Fc on murine CD11b+ cells (FIG. 27e). As to the method:
as §1

The target of assay [4] is T2, talin (murine, endogenous in bone marrow derived myeloid cells) (mouse, UniProt P26039 1-2541).
T2 construct: Detected by immunoblot with anti-talin clone TD77
Kind of assay: co-immunoprecipitation with PS/2, immunoblot (FIG. 3d). The method, then:
BM monocytic cells from WT or α4Y991A mice were isolated as described above and treated with either DMEM or TCM for 30 min at 37° C. Cells were rinsed with cold PBS and lysed in Tris-buffered saline containing 1% CHAPS, 20 mM β-glycerophosphate, 1 mM Na₃VO₄, 5 mM NaF, 100 ng/ml microcystin-LR, and protease inhibitor cocktail. Clarified cell lysates were immunoprecipitated as follows: 1 mg total protein was precleared with 10 μl protein G-conjugated Dynabeads (Invitrogen) for 1 hr with rotation. Cleared lysates were incubated with 5 μg of rat anti-α4β1 (PS/2) antibody overnight, followed by adding 25 μl of protein G-conjugated Dynabeads for 3 h with rotation. Beads were washed three times with 1 ml cold PBS containing protease inhibitor cocktail. Protein precipitates were electrophoresed on 10% SDS-PAGE gels and immunoblotted with anti-integrin α4 (C-20, Santa Cruz Biotechnology), anti-talin (Clone TD77, Chemicon) or anti-paxillin (H-114, Santa Cruz Biotechnology) antibodies. Immune complexes were visualized using an enhanced chemiluminescence detection kit (Pierce).
BM cells (comprised of 80% CD11b+Gr1+ cells) from WT or α4Y991A mice were isolated as described above and treated with either DMEM or TCM for 30 min at 37° C. […]
(Immunoblotting shows a protein as a band on a membrane.)

T2 sequence (P26039 whole entry): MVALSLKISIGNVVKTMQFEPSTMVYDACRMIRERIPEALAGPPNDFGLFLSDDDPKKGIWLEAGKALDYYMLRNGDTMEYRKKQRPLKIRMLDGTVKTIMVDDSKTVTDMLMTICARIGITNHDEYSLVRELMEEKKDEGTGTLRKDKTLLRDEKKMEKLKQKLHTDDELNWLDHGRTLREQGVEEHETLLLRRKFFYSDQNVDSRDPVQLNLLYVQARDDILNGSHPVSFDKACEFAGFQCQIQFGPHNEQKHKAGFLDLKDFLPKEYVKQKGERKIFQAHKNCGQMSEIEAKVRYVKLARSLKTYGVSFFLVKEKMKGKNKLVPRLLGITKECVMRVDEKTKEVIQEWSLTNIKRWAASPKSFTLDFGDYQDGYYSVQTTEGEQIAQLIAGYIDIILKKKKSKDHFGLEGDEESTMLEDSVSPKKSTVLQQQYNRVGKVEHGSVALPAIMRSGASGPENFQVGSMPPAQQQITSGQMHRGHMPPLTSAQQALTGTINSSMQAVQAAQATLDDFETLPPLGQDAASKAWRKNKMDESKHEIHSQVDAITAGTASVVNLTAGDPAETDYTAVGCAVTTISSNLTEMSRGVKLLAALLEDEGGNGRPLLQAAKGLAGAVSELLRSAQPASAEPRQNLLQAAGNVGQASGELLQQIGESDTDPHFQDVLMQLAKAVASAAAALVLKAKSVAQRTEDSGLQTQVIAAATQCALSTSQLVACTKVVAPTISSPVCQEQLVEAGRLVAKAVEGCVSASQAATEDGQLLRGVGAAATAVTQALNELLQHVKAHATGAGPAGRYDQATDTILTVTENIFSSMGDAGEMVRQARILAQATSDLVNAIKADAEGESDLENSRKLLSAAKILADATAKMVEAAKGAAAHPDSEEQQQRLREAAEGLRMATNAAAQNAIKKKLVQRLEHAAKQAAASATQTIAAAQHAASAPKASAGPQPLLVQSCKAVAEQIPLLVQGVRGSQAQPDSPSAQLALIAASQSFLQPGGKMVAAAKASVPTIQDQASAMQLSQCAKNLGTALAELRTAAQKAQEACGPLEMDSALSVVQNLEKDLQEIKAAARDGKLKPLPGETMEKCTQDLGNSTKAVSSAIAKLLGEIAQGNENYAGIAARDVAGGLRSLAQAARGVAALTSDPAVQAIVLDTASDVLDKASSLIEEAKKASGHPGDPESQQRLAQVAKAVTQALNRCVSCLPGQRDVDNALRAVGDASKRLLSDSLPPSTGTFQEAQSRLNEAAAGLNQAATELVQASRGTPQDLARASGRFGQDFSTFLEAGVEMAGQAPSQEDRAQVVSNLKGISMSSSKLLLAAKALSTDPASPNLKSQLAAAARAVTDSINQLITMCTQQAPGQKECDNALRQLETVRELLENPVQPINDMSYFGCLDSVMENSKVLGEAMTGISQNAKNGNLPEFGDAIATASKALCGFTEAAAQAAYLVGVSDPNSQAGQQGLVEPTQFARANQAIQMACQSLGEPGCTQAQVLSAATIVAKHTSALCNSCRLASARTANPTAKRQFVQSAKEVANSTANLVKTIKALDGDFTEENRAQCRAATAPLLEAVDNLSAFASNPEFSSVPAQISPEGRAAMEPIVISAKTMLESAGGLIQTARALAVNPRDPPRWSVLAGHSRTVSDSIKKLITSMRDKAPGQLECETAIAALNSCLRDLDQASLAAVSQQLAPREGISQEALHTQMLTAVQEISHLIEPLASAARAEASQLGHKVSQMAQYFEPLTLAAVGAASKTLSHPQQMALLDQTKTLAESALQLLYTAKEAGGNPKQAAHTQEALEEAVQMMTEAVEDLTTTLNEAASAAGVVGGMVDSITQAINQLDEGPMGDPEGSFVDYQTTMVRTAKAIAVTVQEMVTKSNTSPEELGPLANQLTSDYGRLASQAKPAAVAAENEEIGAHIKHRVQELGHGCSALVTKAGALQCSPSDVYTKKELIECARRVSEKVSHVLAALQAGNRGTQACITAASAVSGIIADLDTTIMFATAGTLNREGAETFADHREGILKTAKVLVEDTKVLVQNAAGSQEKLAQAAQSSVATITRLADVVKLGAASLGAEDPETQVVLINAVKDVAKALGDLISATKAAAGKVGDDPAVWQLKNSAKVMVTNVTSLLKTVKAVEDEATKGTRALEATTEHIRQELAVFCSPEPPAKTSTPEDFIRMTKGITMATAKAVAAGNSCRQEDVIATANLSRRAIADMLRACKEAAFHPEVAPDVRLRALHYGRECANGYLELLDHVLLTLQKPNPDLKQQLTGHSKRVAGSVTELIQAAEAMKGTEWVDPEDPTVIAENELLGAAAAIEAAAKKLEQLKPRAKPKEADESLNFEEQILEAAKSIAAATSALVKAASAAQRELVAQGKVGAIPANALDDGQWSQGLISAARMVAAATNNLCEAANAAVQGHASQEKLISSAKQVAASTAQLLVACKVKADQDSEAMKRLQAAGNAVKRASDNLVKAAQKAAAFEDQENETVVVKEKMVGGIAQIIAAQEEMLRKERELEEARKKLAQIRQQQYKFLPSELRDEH

Regarding pertussis toxin, the “CD11b+ cell adhesion to endothelium” value in assay [1] is “inhibited SDF-1α, and TCM-induced but not IL-1β induced adhesion”. Also, the “integrin α4 clustering” value in the assay on integrin α4 is “blocked SDF-1α-induced integrin clustering”.
As for B1, the values for the binding result in assay [2] and in assay [3] were “no binding” and “binds”, respectively.
On to B2, for which, in assay [4], the binding result is “no binding”.
